Assay [1] concerns the target T1, SARS-CoV-2 spike trimer S (Wuhan, SmT1) (SARS-CoV-2 Wuhan).
T1 construct: extracellular domain
Briefly: ELISA, coated antigen, apparent EC50. Background: ELISA stands for enzyme-linked immunosorbent assay.

The target of assay [2] is T2, SARS-CoV-2 S1 (aa16-685) (Wuhan) (SARS-CoV-2 Wuhan, UniProt P0DTC2 16-685).
T2 construct: NRC; FLAG, 6xHis tags
As to the kind of experiment: ELISA, coated antigen, apparent EC50.

The target in assay [3] is T3, SARS-CoV-2 S1-NTD (aa16-305) (SARS-CoV-2 Wuhan, UniProt P0DTC2 16-305). Briefly: ELISA, coated antigen.
The target of assay [4] is SARS-CoV-2 S1-RBD fused to human Fc (S1-RBD-Fc) (SARS-CoV-2 Wuhan; human). As to the kind of experiment: SPR, antigen on chip.
Assay [5] deals with T1, SARS-CoV-2 spike trimer S (Wuhan, SmT1). Briefly: SPR, antigen on chip.
Assay [6] addresses T2, SARS-CoV-2 S1 (aa16-685) (Wuhan). As to the kind of experiment: SPR, antigen on chip.
In assay [7] the target is T1, SARS-CoV-2 spike trimer S (Wuhan, SmT1). As to the kind of experiment: flow cytometry, inhibition of S binding to ACE2 on Vero E6 cells, monomeric VHH. (In general: Flow cytometry measures light scatter and fluorescence of single cells or particles in a stream.)
In assay [8] the target is T4, SARS-CoV-2 S on CHO-S cells (SARS-CoV-2, UniProt P0DTC2 14-1273).
T4 construct: whole, on cells
As to the kind of experiment: flow cytometry, CHO-S cells.

The target of assay [9] is T5, RBD (aa319-541) (Wuhan) (SARS-CoV-2 (Wuhan), UniProt P0DTC2 319-541). As to the kind of experiment: SPR, RBD over captured VHH-Fc. On the technique in general: Surface plasmon resonance follows binding to a sensor surface in real time, without labels.
Assay [10] deals with RBD_SARS-CoV (aa306-527) (SARS-CoV, UniProt P59594 306-527). As to the kind of experiment: SPR, RBD over captured VHH-Fc.
Assay [11] concerns the target T3, SARS-CoV-2 S1-NTD (aa16-305). Briefly: ELISA.
Assay [12] concerns the target T6, SARS-CoV-2 S2 (aa686-1208) (Wuhan) (SARS-CoV-2 Wuhan, UniProt P0DTC2 686-1208).
T6 construct: NRC; FLAG, 6xHis tags
Briefly: ELISA.

Assay [13] deals with T5, RBD (aa319-541) (Wuhan). As to the kind of experiment: SPR, RBD over captured VHH-Fc (per Table 11 footnote).
Assay [14] has as its target SARS-CoV spike (S) (SARS-CoV, UniProt P59594 14-1195). Briefly: ELISA.
The target in assay [15] is T7, ACE2-Fc (human ACE2 aa18-740 fused to human IgG1 Fc) (human, UniProt Q9BYF1 18-740).
T7 construct: range 18-740
Briefly: ELISA.

Assay [16] addresses T6, SARS-CoV-2 S2 (aa686-1208) (Wuhan). As to the kind of experiment: SPR; 'nd' read as spanning the three S1 columns, the dashes as the S2 block.
The target of assay [17] is SARS-CoV-2 RBD (aa319-541) (Wuhan), monomeric (SARS-CoV-2 Wuhan, UniProt P0DTC2 319-541). Briefly: SPR, monomeric RBD over captured VHH-Fc.
Assay [18] concerns the target Human SARS-CoV-2_Wuhan S (SmT1) (SARS-CoV-2 (Wuhan), UniProt P0DTC2 14-1208). Briefly: tandem SPR, immobilized S, orientation 1: VHH alone.
The target in assay [19] is T2, SARS-CoV-2 S1 (aa16-685) (Wuhan). Briefly: SPR single-cycle kinetics, VHH over immobilized S1 [cont.].
Assay [20] concerns the target T6, SARS-CoV-2 S2 (aa686-1208) (Wuhan). As to the kind of experiment: SPR single-cycle kinetics, VHH over immobilized S2 [cont.].
For assay [21] the target is unchanged. Briefly: SPR, antigen on chip.

The text below walks through data of US20240270826A1 (NATIONAL RESEARCH COUNCIL OF CANADA, published 2024).

T7 sequence (Q9BYF1 18-740 limits assumed): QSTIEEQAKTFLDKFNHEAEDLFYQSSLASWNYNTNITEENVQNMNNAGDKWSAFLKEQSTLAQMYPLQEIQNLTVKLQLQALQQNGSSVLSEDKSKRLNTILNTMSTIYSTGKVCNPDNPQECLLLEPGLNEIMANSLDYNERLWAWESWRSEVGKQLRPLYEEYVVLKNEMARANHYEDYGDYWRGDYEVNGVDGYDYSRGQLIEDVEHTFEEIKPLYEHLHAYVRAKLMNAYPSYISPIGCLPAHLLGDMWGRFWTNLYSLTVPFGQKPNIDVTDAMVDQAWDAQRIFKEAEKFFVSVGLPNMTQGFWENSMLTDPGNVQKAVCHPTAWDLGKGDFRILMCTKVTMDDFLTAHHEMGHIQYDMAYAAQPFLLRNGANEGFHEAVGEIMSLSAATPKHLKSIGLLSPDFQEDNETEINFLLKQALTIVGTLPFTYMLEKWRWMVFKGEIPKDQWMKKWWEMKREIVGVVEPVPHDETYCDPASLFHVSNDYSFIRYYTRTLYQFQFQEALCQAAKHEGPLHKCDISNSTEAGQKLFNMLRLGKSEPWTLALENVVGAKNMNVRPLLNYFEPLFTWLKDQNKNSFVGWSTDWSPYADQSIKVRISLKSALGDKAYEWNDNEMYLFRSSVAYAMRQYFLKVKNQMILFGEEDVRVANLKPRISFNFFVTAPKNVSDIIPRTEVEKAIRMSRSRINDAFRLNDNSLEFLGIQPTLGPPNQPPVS

B1: NRCoV2-02 VHH-Fc (Fc fusion)
chain: EVQLVESGGGLVQAGGSLRLSCAASGFTFSNYAMNWVRQAPGKGLEWVSGISGRGDDTRYADSVKGRFTISRDNAKNTLFLQMRSLRPEDTGVYRCTKGPDLYYFGSGYSDRGQGTQVTVSS
notes: bivalent
B1: the values for the EC50 in assay [1] and in assay [2] were 0.1 nM and 0.11 nM, respectively. Also, the binding result in [3] was “no binding”.

B2: NRCoV2-11 VHH (VHH)
VHH: EVQLVSSGGGLVQPGGSLRLSCAASGSSLDSYSVSWFRQAPGKEREWISFISRYYSSTYYTDSVKGRFTTSRDGDQKTVHLQMNSLKPEDTAVYYCAARSRDFSSPFSATDTYTSWGQGTQVTVSS
In the case of B2, in assay [4], the Kd – broadly, a measure of binding affinity in units of concentration – is 0.253 nM; the koff – broadly, the first-order rate constant of dissociation – stood at 0.000226 s⁻¹; the kon (in general, the rate constant with which the complex forms) was 892000 M⁻¹ s⁻¹. In [5], this molecule gave a Kd of 0.0391 nM, a koff of 4.73e-05 s⁻¹ and a kon of 1.21e+06 M⁻¹ s⁻¹. In [6], this molecule had an equilibrium dissociation constant (Kd) of 0.167 nM, a koff of 0.00018 s⁻¹ and a kon of 1.08e+06 M⁻¹ s⁻¹. Besides, the IC50 (commonly the midpoint of a concentration-inhibition curve) in assay [7] came to 16.8 nM.

B3: NRCoV2-MRed05 VHH-Fc (Fc fusion)
chain: EVQLVESGGGLVQPGGSLRLSCAASGFTLDYYAIGWFRQAPGKEREGVSCISSSDGSTLYADSVKGRFTISRDNAKNTVYLQMNSLKPEDTAVYYCATGPQAYYSGSYYFQCPQAGMDYWGKGTQVTVSS
On to B3, for which the Bmax in assay [8] worked out at 17300. For the same molecule, in [8], the EC50 (in general, the concentration needed to bring the measured effect to its halfway point) is 0.5 nM. The values for the Kd in assay [9] and in [13] were 0.905 nM and 0.91 nM, respectively. This molecule also showed a koff in assay [9] of 0.000509 s⁻¹. This molecule also displayed a kon in assay [9] of 562000 M⁻¹ s⁻¹. Further, the binding result in assay [10] is reported as “no binding”; in [11], “no binding (tested: 13 nM)”; in assay [12] it was “no binding (tested: 13 nM)”; in [14], “no binding (tested: 13 nM)”.

B4: Human CoV-HKU1 S (other)
chain: AVIGDFNCTNSFINDYNKTIPRISEDVVDVSLGLGTYYVLNRVYLNTTLLFTGYFPKSGANFRDLALKGSIYLSTLWYKPPFLSDFNNGIFSKVKNTKLYVNNTLYSEFSTIVIGSVFVNTSYTIVVQPHNGILEITACQYTMCEYPHTVCKSKGSIRNESWHIDSSEPLCLFKKNFTYNVSADWLYFHFYQERGVFYAYYADVGMPTTFLFSLYLGTILSHYYVMPLTCNAISSNTDNETLEYWVTPLSRRQYLLNFDEHGVITNAVDCSSSFLSEIQCKTQSFAPNTGVYDLSGFTVKPVATVYRRIPNLPDCDIDNWLNNVSVPSPLNWERRIFSNCNFNLSTLLRLVHVDSFSCNNLDKSKIFGSCFNSITVDKFAIPNRRRDDLQLGSSGFLQSSNYKIDISSSSCQLYYSLPLVNVTINNFNPSSWNRRYGFGSFNLSSYDVVYSDHCFSVNSDFCPCADPSVVNSCAKSKPPSAICPAGTKYRHCDLDTTLYVKNWCRCSCLPDPISTYSPNTCPQKKVVVGIGEHCPGLGINEEKCGTQLNHSSCFCSPDAFLGWSFDSCISNNRCNIFSNFIFNGINSGTTCSNDLLYSNTEISTGVCVNYDLYGITGQGIFKEVSAAYYNNWQNLLYDSNGNIIGFKDFLTNKTYTILPCYSGRVSAAFYQNSSSPALLYRNLKCSYVLNNISFISQPFYFDSYLGCVLNAVNLTSYSVSSCDLRMGSGFCIDYALPSSRRKRRGISSPYRFVTFEPFNVSFVNDSVETVGGLFEIQIPTNFTIAGHEEFIQTSSPKVTIDCSAFVCSNYAACHDLLSEYGTFCDNINSILNEVNDLLDITQLQVANALMQGVTLSSNLNTNLHSDVDNIDFKSLLGCLGSQCGSSSRSLLEDLLFNKVKLSDVGFVEAYNNCTGGSEIRDLLCVQSFNGIKVLPPILSETQISGYTTAATVAAMFPPWSAAAGVPFSLNVQYRINGLGVTMDVLNKNQKLIANAFNKALLSIQNGFTATNSALAKIQSVVNANAQALNSLLQQLFNKFGAISSSLQEILSRLDNLEAQVQIDRLINGRLTALNAYVSQQLSDITLIKAGASRAIEKVNECVKSQSPRINFCGNGNHILSLVQNAPYGLLFIHFSYKPTSFKTVLVSPGLCLSGDRGIAPKQGYFIKQNDSWMFTGSSYYYPEPISDKNVVFMNSCSVNFTKAPFIYLNNSIPNLSDFEAELSLWFKNHTSIAPNLTFNSHINATFLDLYYEMNVIQESIKSLNSSFINLKEIGTYEMYVKWP
notes: Sino Biological; 6xHis
For B4, the binding result in assay [15] is “no binding (tested: 13 nM)”.

B5: NRCoV2-12 VHH-Fc (Fc fusion)
chain: EVQLQQSGGGLVQAGGSLRLSCAASGRTFRNYVMGWFRQAPQAPGKDHEFVAAISWGGTEIYYADSVKGRFTISRDNAKNTVYLQMNSLKPEDTAVYYCAADRGLSYYYTRTTEYNYWGQGTQVTVSS
In assay [8], B5 gave a Bmax of 21800 and an EC50 of 0.8 nM. In assay [9], this molecule displayed a Kd of 0.0469 nM, a koff of 3.5e-05 s⁻¹ and a kon of 747000 M⁻¹ s⁻¹. Besides, in assay [10], the Kd is 2.69 nM, the koff is 0.00101 s⁻¹ and the kon came to 376000 M⁻¹ s⁻¹. Besides, in [11], the binding result is “no binding (tested: 13 nM)”. Besides, the binding result in [12] is listed as “no binding (tested: 13 nM)”. In addition, binding in assay [13] was characterised by a dissociation constant (Kd) of 0.047 nM.

B6: NRCoV2-12 VHH-Fc (Fc fusion)
chain: EVQLQQSGGGLVQAGGSLRLSCAASGRTFRNYVMGWFRQAPQAPGKDHEFVAAISWGGTEIYYADSVKGRFTISRDNAKNTVYLQMNSLKPEDTAVYYCAADRGLSYYYTRTTEYNYWGQGTQVTVSS
notes: bivalent
For B6, the binding result in assay [16] is “no binding”. In [17], this molecule returned a Kd of 0.0486 nM, a koff of 3.69e-05 s⁻¹ and a kon of 760000 M⁻¹ s⁻¹.

B7: NRCoV2-S2A4 VHH (VHH)
VHH: QVQLVQSGGGLVQAGGSLRLSCAVSGSPFRSNVMEWYRQAPGKQRELVASISTGGSRTYTDSVKGRFTISRDNAKNEAFLQMNSLKPEDTAVYYCHAAARDSHGIYLLDTWGQGTQVTVSS
Turning to B7, in assay [18], the “End 1st inj (RU)” value amounted to 11.6 RU. For the same molecule, the binding result in assay [19] is on record as “no binding (tested: 40 nM)”.

B8: NRCoV2-07 VHH (VHH)
VHH: QVQLVQSGGGLVQPGGSLRLSCAASGVTLDYYAIGWFRQAPGKEREAVSCISSNGRRNHYVASVRGRFTISRDNAKSTVYLQMNSLKPEDTAVYYCAAVQDVHGDNYYCTSPNEYNVWGQGTQVTVSS
As to B8, in [20], the binding result was “no binding (tested: 20 nM)”. Also, in [18], the “End 1st inj (RU)” value came to 19.1 RU.

B9: NRCoV2-17 VHH (VHH)
VHH: EVQLQQSGGGLVQTGGSLRLSCAAAGSPFSQLAMSWYRQISGKERAWVASISPTGNRSYSKIAKGRFTISRDNAKNTVTLQMTSLKPEDTAAYICQAANVNGGDYWGQGTQVTVSS
B9: the Kd in [4] worked out at 0.395 nM; in [5] it was 0.149 nM; in assay [6], 0.153 nM. In addition, the koff was determined as 0.000224 s⁻¹ in assay [4], 9.79e-05 s⁻¹ in assay [5] and 9.66e-05 s⁻¹ in assay [6]. The kon in assay [4] was found to be 567000 M⁻¹ s⁻¹; in [5], 659000 M⁻¹ s⁻¹; in assay [6] it was 629000 M⁻¹ s⁻¹. In [21], the binding result is “no binding”. In assay [7], this molecule showed an IC50 of 9.4 nM.
